Data on two molecules can be found in article PMC3257258, “Characterization of a Novel Association between Two Trypanosome-Specific Proteins and 5S rRNA”.

Data set [1] concerns the target T1, P37 (Trypanosoma brucei, UniProt O15759 1-279).
T1 sequence: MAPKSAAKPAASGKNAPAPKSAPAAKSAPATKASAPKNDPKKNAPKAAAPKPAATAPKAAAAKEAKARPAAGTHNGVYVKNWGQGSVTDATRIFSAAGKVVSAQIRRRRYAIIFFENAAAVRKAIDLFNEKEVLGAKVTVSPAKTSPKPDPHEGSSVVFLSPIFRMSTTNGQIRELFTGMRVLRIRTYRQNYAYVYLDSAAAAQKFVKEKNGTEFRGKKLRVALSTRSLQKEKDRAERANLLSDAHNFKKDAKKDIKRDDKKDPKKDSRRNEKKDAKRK
Description: filter binding; similar to wild type, data not shown; Filter binding: 10 mM Tris pH 7.4, 1 mM EDTA, 100 mM NaCl, 0.1% NP-40, 100 ug/mL BSA, RT 20 min; EMSA/competition/RNase H protection: 10 mM Tris-HCl pH 7.4, 150 mM KCl, 0.1 mM DTT, 0.1 mM EDTA, 0.1% NP-40, RT 20 min. The note with it: protein: recombinant; tags: His (pQE-1); label: 32P-UTP (body). (In general: In EMSA bound probe runs differently from free probe, usually more slowly.)

The target of data set [2] is T2, P34 (Trypanosoma brucei, UniProt O15758 1-262).
T2 sequence: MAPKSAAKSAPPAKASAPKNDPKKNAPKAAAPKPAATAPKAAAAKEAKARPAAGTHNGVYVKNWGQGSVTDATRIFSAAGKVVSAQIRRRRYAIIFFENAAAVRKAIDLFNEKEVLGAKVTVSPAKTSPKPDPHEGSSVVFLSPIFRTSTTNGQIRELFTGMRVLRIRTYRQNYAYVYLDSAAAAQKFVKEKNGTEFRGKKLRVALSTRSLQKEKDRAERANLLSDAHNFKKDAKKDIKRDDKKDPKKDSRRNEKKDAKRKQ
Nature of the data set: filter binding; no significant difference from wild type (one text sentence says P37; legend and assay say P34); Filter binding: 10 mM Tris pH 7.4, 1 mM EDTA, 100 mM NaCl, 0.1% NP-40, 100 ug/mL BSA, RT 20 min; EMSA/competition/RNase H protection: 10 mM Tris-HCl pH 7.4, 150 mM KCl, 0.1 mM DTT, 0.1 mM EDTA, 0.1% NP-40, RT 20 min. The note with it: protein: recombinant; tags: His (pQE-1); label: 32P-UTP (body).

For data set [3], the target named is T2, P34. Description: competition; competes 5S rRNA at 100-1000 ng; Filter binding: 10 mM Tris pH 7.4, 1 mM EDTA, 100 mM NaCl, 0.1% NP-40, 100 ug/mL BSA, RT 20 min; EMSA/competition/RNase H protection: 10 mM Tris-HCl pH 7.4, 150 mM KCl, 0.1 mM DTT, 0.1 mM EDTA, 0.1% NP-40, RT 20 min. The note with it: protein: recombinant; tags: His (pQE-1); hairpin.
Data set [4] has as its target T1, P37. Description: competition; competes 5S rRNA at 100-1000 ng, somewhat better than for P34; Filter binding: 10 mM Tris pH 7.4, 1 mM EDTA, 100 mM NaCl, 0.1% NP-40, 100 ug/mL BSA, RT 20 min; EMSA/competition/RNase H protection: 10 mM Tris-HCl pH 7.4, 150 mM KCl, 0.1 mM DTT, 0.1 mM EDTA, 0.1% NP-40, RT 20 min. The note with it: protein: recombinant; tags: His (pQE-1); hairpin.

B1: 5S rRNA deltaU (U43A) (structured_RNA)
RNA: GGGUACGACCAUACUUGGCCGAAUGCACCAUAUCCCGUCCGAAUUGUGAAGUUAAGCGGCCACAGGCCUCGUUAGUACGGCGAUCAGUGAUGGCGCUGGAACCCGGGGUGUUGUACUCU
B1: the binding result with P37 [1] and in the data set with P34 [2] was “binds” throughout.

Take GCGGGGUGCCAUACUUACAGGCCUCGC (structured_RNA) [LoopA/StemV]: the binding result with P34 [3] and in the data set with P37 [4] was “binds” in each case.
